This passage reports fraction of the molecules that are dimers results from article PMC3821618.

The target in this assay is TagRFP-T (Entacmaea quadricolor). As to the kind of experiment: fluorescence correlation spectroscopy (FCS), molecular brightness analysis; live transfected mouse GHFT1 cells, cytosol; molecular brightness Mb = CPS/(N*Po) from one-component autocorrelation fits, compared with published intrinsic brightness and between FP alone and FP-BZip; 561 nm excitation, 36 °C, 5% CO2.

TagRFP-T returned a fraction of the molecules that are dimers of 30%.
